Test results published in patent US20200282100A1, “Hemostatic Dressings with Self-Assembling Peptide Hydrogels” (3-D Matrix, Ltd., priority 2016, published 2020).

Assay: Congo Red assay of gel formation of peptide solutions in PBS buffer (pH 7.4) with a hemostatic porous dressing
Type: physicochemical
Conditions: PBS pH 7.4, compared with pure RADA16 2.5%
Experimental: A Congo Red assay was performed to assess gel formation of peptide solutions in a PBS buffer solution (pH 7.4) when used with a hemostatic porous dressing. RADA16 2.5% (PuraMatrix®) was plated on a glass slide and also on a hemostatic porous dressing on a glass slide. PuraMatrix® was spread on the surface of the hemostatic porous dressing using a stick. After 30 seconds, 1% Congo Red solution was added around and on top of the gel aliquots and then the excess Congo Red solution was wiped off prior to examination. RADA16 2.5% was also plated on an absorbable gelatin sponge (Surgifoam®, Ethicon) and on an absorbable oxidized regenerated cellulose woven dressing (Surgicel®, Ethicon). Visualization of gel formation determined the success or failure of gelation. […] Specifically, (1) and (2) show pure RADA16 2.5% (PuraMatrix®). In (3), (4), and (5), RADA16 2.5% is shown with absorbable gelatin sponge (Surgifoam®, Ethicon). In (6), (7), and (8), RADA16 2.5% is shown with absorbable oxidized regenerated cellulose woven dressing (Surgicel®, Ethicon).
A Congo Red assay was performed to assess gel formation of peptide solutions in a PBS buffer solution (pH 7.4) when used with a hemostatic porous dressing.
IEIK13 1.3% (pH 3.0) was plated on a glass slide and on a hemostatic porous dressing on a glass slide. […] Visualization of gel formation determined the success or failure of gelation. […]

For RADARADARADARADA [RADA16 2.5%], the “gel formation (visualization)” value (on absorbable gelatin sponge (Surgifoam, Ethicon)) was “gelled” and the “gel formation (visualization)” value (on absorbable oxidized regenerated cellulose woven dressing (Surgicel, Ethicon)) was “gelled”.
